# Test results taken from paper PMC9949255.
# What was measured:
# [1] = target: recombinant HIV-1 gp120 ZM109 (HIV-1 strain ZM109); assay: BLI; Octet Red96; recombinant gp120 coupled to AR2G biosensors, dipped into titrated SLBR-N; PBS with 0.1% BSA and 0.02% Tween 20; 1:1 global fit
# [2] = target: recombinant HIV-1 gp120 ZM109 (HIV-1 strain ZM109); assay: BLI; Octet Red96; anti-Env mAb 2219 (5 μg/mL) on AHC biosensors, then recombinant gp120 ZM109 (5 μg/mL), dipped into titrated FimH; PBS with 0.1% BSA and 0.02% Tween 20; 1:1 global fit
Substance,Kd [1] [nM],Kd [2] [nM]
"Streptococcal Siglec-like lectin SLBR-N, GST-tagged (domain or fragment)",40.3,
recombinant FimH protein (lectin domain only) (from UniProt P08191 22-179) (domain or fragment),,360
